Assay results as given in patent publication US20190085054A1.

How the values were obtained:
Assay in all cases: cell-based or functional assay
[1] = target: catalytic domain of human MMP9 (human) (UniProt P14780)
active MMP13 = active MMP13 (UniProt P45452)
[2] = target: human MMP2 (pro-MMP2 activated with APMA) (human) (UniProt P08253)
Chain of human MMP2 (pro-MMP2 activated with APMA) (human) (P08253 30-660): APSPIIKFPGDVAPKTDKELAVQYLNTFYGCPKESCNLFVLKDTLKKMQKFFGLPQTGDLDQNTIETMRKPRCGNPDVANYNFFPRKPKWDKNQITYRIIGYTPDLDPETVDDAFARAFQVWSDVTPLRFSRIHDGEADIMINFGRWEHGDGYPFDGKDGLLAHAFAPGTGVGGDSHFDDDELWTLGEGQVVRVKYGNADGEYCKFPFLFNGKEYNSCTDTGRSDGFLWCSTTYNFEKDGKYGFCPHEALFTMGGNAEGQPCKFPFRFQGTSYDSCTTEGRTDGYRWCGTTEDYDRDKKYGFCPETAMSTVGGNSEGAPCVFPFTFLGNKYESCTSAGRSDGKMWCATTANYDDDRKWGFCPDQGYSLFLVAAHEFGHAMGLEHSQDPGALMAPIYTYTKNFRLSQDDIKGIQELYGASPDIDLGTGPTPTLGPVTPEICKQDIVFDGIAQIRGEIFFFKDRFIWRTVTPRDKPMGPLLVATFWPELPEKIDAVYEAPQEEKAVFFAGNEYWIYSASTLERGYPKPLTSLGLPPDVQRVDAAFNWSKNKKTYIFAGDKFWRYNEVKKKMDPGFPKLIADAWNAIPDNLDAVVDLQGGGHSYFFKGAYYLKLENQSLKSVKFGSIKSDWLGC

Chain of catalytic domain of human MMP9 (human) (P14780 107-444 limits assumed): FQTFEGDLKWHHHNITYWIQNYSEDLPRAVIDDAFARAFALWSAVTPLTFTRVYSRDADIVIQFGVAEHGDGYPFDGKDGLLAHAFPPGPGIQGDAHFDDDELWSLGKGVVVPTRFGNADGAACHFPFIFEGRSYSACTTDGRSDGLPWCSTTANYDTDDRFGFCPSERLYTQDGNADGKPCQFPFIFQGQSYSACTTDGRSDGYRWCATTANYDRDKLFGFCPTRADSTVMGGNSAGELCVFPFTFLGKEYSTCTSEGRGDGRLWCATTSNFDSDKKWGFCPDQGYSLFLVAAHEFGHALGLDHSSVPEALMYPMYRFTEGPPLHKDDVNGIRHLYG

| MMP9 IC50 [1] | MMP13 IC50 (active MMP13) | MMP2 IC50 [2] | Substance |
| --- | --- | --- | --- |
| 4.6 nM | 0.5 nM | 0.5 nM | TIMP-3 mutein F57N |
| 4 nM | – | 0.3 nM | TIMP-3 mutein K45S, F57N |
| 2.3 nM | 3.1 nM | 1 nM | TIMP-3 mutein P56N, G58T |
| 0.5 nM | 2.2 nM | 0.8 nM | TIMP-3 mutein T63N, K65T |
